Experimental data published in FireProtDB (doi:10.1093/protein/12.7.581).
“And” between values parts separate entries of the source, which are not always exact repeats. Identical values can stand only once.

Conditions: Bos taurus; pH 7.4; Thermal; CD; Tris-HCl 20 mM; CaCl2 1 mM; reversible: yes(>95%); whole UniProt chain shown

B1: Alpha-lactalbumin wild type, P00711 (protein)
chain: MMSFVSLLLVGILFHATQAEQLTKCEVFRELKDLKGYGGVSLPEWVCTTFHTSGYDTQAIVQNNDSTEYGLFQINNKIWCKDDQNPHSSNICNISCDKFLDDDLTDDIMCVKKILDKVGINYWLAHKALCSEKLDQWLCEKL
unfolding enthalpy (van 't Hoff): 64.5 kcal/mol and 73.8 kcal/mol and 73.4 kcal/mol
